Test results as given in the supplement of paper PMC10065799, “High-throughput profiling of sequence recognition by tyrosine kinases and SH2 domains using bacterial peptide display” (eLife, 2023).
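Note: 11-residue human phosphosite peptides and single-mutation variants displayed on the E. coli surface, counted by deep sequencing, each peptide's frequency after selection divided by its frequency in the unselected input library; frequency after pTyr selection over input frequency; kinase dosed for 20-30% of maximal phosphorylation in three min.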

The sequences below were run on c-Src (assay: phosphorylation enrichment, bacterial display (enrichment ratio); higher = better substrate or ligand; peptides without Tyr show the background).
For VMVCAYLLHRG [PTEN_Y138_I135V], the phosphorylation enrichment was 0.558.
For QFFQGYFNNNF [ZNF236_Y644_S643G], the phosphorylation enrichment was 0.721.
VIKDKYPQARY [APTX_Y209_K211Q] gave a phosphorylation enrichment of 0.43.
In the case of VQDPAYLRDIN [OPRK1_Y369_D374N], the phosphorylation enrichment is reported as 0.488.
EWLRGYLENGK [HLA-C_Y195_R194G] was tested, and the phosphorylation enrichment was 0.481.
Work on KQMEQYMSFHK [HCN1_Y417_V414M] yielded a phosphorylation enrichment of 1.76.
Work on EWQQTYTYDSG [JUP_Y20] yielded a phosphorylation enrichment of 3.88.
For HNLDFYKKTTN [FGFR3_Y648_YF], the phosphorylation enrichment was 2.23.
In the case of GVRLFYRVMES [RB1_Y454_YF], the phosphorylation enrichment is reported as 0.39.
SVTCTYSPALN [TP53_Y126] gave a phosphorylation enrichment of 0.66.
AEPPDYSPVTQ [ADGRG2_Y285_H290Q] was tested, and the phosphorylation enrichment was 0.522.
Sequence GKFRMYVAVWT [F13A1_Y161] has a phosphorylation enrichment of 0.342.
With REDVFYTSKLW [AKR1C2_Y81_I79V] the phosphorylation enrichment was 0.662.
TVETKYDNISR [SETDB2_Y477] showed a phosphorylation enrichment of 0.461.
Work on RKQQLYTAMEE [CCDC39_Y593] yielded a phosphorylation enrichment of 0.583.
EELLRYAIVTP [POC5_Y37_H36R] gave a phosphorylation enrichment of 0.444.
For PVDNLYAEPAV [PRPS1_Y146], the phosphorylation enrichment was 1.56.
With NQLNDYIFSFD [RARS1_Y516_R512Q] the phosphorylation enrichment was 0.598.
FQKNIYSEEPR [LMNA_Y211_L215P] showed a phosphorylation enrichment of 1.54.
KELALYDENWF [RPS19_Y48_P47L] was tested, and the phosphorylation enrichment was 1.39.
With KRISCYEARFQ [PFKFB3_Y194_S197R_YF] the phosphorylation enrichment was 0.497.
For FSAPNYCFRCG [PPP2CA_Y265_YF], the phosphorylation enrichment was 0.343.
Work on ADVLDYIKALN [HPRT1_Y81_L78V] yielded a phosphorylation enrichment of 0.463.
EVTLTYATGTK [NFKB1_Y485] was tested, and the phosphorylation enrichment was 0.409.
FLAVGYHKPHI [IDS_Y225] gave a phosphorylation enrichment of 0.448.
Sequence FADTAYNFRHG [PAH_Y166_I164T_YF] has a phosphorylation enrichment of 0.415.
For VMTVDYSKTVV [SETD2_Y770], the phosphorylation enrichment was 0.319.
SVKVYYKKCWF [EPHA7_Y202_S207F] gave a phosphorylation enrichment of 0.448.
Work on LIQRNYKLTAQ [ALPK2_Y1975_A1978T] yielded a phosphorylation enrichment of 0.706.
Sequence DVFVSYDFGKS [SORL1_Y139_YF] has a phosphorylation enrichment of 0.468.
Sequence AFRRGYFDEEM [PLEC_Y2971_YF] has a phosphorylation enrichment of 0.6.
IIRRLYLKWHP [SACS_Y4333] gave a phosphorylation enrichment of 0.571.
SEPDLYCDPRG [PKP1_Y160] was tested, and the phosphorylation enrichment was 2.17.

These sequences were tested against FGFR3 (UniProt P22607) in the same assay as above.
Chain of FGFR3 (P22607 whole entry, looked up): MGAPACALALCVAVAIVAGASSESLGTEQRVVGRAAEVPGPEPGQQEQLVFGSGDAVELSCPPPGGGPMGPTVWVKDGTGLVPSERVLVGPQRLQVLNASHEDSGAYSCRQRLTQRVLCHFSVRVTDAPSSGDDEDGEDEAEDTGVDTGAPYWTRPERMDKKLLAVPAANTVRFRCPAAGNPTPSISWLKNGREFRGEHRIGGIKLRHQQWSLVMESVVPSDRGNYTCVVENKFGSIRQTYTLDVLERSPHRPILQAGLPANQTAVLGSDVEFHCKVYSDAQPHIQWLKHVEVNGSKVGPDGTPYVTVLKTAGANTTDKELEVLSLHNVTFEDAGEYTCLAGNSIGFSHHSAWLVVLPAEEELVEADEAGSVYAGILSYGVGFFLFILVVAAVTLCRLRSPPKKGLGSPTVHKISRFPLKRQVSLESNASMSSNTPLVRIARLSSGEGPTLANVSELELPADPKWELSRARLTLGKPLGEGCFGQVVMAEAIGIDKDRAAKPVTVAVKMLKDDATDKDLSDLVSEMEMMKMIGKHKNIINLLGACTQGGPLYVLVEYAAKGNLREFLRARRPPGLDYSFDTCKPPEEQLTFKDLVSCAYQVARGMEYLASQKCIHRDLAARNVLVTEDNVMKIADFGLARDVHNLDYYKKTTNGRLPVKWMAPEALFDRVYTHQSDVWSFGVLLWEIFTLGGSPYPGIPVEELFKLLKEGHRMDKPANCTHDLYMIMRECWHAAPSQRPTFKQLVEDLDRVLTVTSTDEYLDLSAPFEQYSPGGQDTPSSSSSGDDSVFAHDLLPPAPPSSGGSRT
Work on VMVCAYLLHRG [PTEN_Y138_I135V] yielded a phosphorylation enrichment of 0.78.
Work on QFFQGYFNNNF [ZNF236_Y644_S643G] yielded a phosphorylation enrichment of 0.845.
VIKDKYPQARY [APTX_Y209_K211Q] gave a phosphorylation enrichment of 0.453.
VQDPAYLRDIN [OPRK1_Y369_D374N] was tested, and the phosphorylation enrichment was 0.623.
Sequence EWLRGYLENGK [HLA-C_Y195_R194G] has a phosphorylation enrichment of 0.601.
KQMEQYMSFHK [HCN1_Y417_V414M] showed a phosphorylation enrichment of 0.547.
EWQQTYTYDSG [JUP_Y20] gave a phosphorylation enrichment of 0.99.
HNLDFYKKTTN [FGFR3_Y648_YF] showed a phosphorylation enrichment of 1.68.
GVRLFYRVMES [RB1_Y454_YF] gave a phosphorylation enrichment of 0.815.
Work on SVTCTYSPALN [TP53_Y126] yielded a phosphorylation enrichment of 0.984.
AEPPDYSPVTQ [ADGRG2_Y285_H290Q] was tested, and the phosphorylation enrichment was 0.717.
GKFRMYVAVWT [F13A1_Y161] was tested, and the phosphorylation enrichment was 0.665.
REDVFYTSKLW [AKR1C2_Y81_I79V] gave a phosphorylation enrichment of 1.05.
For TVETKYDNISR [SETDB2_Y477], the phosphorylation enrichment was 0.553.
For RKQQLYTAMEE [CCDC39_Y593], the phosphorylation enrichment was 0.757.
EELLRYAIVTP [POC5_Y37_H36R] was tested, and the phosphorylation enrichment was 0.615.
PVDNLYAEPAV [PRPS1_Y146] gave a phosphorylation enrichment of 0.986.
NQLNDYIFSFD [RARS1_Y516_R512Q] showed a phosphorylation enrichment of 0.807.
Sequence FQKNIYSEEPR [LMNA_Y211_L215P] has a phosphorylation enrichment of 0.582.
Work on KELALYDENWF [RPS19_Y48_P47L] yielded a phosphorylation enrichment of 0.947.
For KRISCYEARFQ [PFKFB3_Y194_S197R_YF], the phosphorylation enrichment was 0.496.
Sequence FSAPNYCFRCG [PPP2CA_Y265_YF] has a phosphorylation enrichment of 0.486.
ADVLDYIKALN [HPRT1_Y81_L78V] was tested, and the phosphorylation enrichment was 0.629.
Sequence EVTLTYATGTK [NFKB1_Y485] has a phosphorylation enrichment of 0.643.
FLAVGYHKPHI [IDS_Y225] gave a phosphorylation enrichment of 0.647.
With FADTAYNFRHG [PAH_Y166_I164T_YF] the phosphorylation enrichment was 0.39.
Work on VMTVDYSKTVV [SETD2_Y770] yielded a phosphorylation enrichment of 0.485.
Sequence SVKVYYKKCWF [EPHA7_Y202_S207F] has a phosphorylation enrichment of 0.596.
Work on LIQRNYKLTAQ [ALPK2_Y1975_A1978T] yielded a phosphorylation enrichment of 0.511.
In the case of DVFVSYDFGKS [SORL1_Y139_YF], the phosphorylation enrichment is reported as 0.598.
Sequence AFRRGYFDEEM [PLEC_Y2971_YF] has a phosphorylation enrichment of 0.673.
IIRRLYLKWHP [SACS_Y4333] showed a phosphorylation enrichment of 0.596.
Work on SEPDLYCDPRG [PKP1_Y160] yielded a phosphorylation enrichment of 1.45.

Each sequence was assayed against EPHB1 (UniProt P54762) in the same assay as above.
Chain of EPHB1 (P54762 whole entry, looked up): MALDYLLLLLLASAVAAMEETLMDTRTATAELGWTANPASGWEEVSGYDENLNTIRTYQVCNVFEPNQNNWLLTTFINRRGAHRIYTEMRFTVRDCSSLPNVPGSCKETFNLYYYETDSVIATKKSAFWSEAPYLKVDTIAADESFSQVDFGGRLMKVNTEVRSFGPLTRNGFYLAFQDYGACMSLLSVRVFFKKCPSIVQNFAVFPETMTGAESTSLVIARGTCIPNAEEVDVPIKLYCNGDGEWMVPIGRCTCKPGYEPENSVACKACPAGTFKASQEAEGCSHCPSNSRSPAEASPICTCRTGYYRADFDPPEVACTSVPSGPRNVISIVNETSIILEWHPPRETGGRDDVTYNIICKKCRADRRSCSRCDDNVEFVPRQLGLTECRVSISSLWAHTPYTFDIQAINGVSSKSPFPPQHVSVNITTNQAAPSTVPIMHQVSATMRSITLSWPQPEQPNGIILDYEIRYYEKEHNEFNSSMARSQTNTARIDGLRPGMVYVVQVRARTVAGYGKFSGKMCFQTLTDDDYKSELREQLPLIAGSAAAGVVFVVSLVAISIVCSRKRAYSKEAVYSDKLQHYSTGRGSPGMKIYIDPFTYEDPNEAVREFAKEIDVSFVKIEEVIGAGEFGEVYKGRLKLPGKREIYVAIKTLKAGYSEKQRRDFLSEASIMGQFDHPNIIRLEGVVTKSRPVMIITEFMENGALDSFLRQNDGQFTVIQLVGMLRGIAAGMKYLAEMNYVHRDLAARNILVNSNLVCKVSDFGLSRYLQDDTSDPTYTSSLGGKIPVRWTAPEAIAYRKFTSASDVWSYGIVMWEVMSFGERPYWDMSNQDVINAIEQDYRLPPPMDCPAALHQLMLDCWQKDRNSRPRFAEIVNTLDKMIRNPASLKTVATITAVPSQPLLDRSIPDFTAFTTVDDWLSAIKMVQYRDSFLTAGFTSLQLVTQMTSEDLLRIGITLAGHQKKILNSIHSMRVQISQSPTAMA
VMVCAYLLHRG [PTEN_Y138_I135V] was tested, and the phosphorylation enrichment was 0.614.
QFFQGYFNNNF [ZNF236_Y644_S643G] was tested, and the phosphorylation enrichment was 0.545.
Sequence VIKDKYPQARY [APTX_Y209_K211Q] has a phosphorylation enrichment of 0.401.
With VQDPAYLRDIN [OPRK1_Y369_D374N] the phosphorylation enrichment was 0.608.
EWLRGYLENGK [HLA-C_Y195_R194G] showed a phosphorylation enrichment of 0.51.
For KQMEQYMSFHK [HCN1_Y417_V414M], the phosphorylation enrichment was 0.393.
With EWQQTYTYDSG [JUP_Y20] the phosphorylation enrichment was 0.554.
Sequence HNLDFYKKTTN [FGFR3_Y648_YF] has a phosphorylation enrichment of 1.76.
Sequence GVRLFYRVMES [RB1_Y454_YF] has a phosphorylation enrichment of 0.655.
With SVTCTYSPALN [TP53_Y126] the phosphorylation enrichment was 0.794.
AEPPDYSPVTQ [ADGRG2_Y285_H290Q] gave a phosphorylation enrichment of 0.435.
GKFRMYVAVWT [F13A1_Y161] showed a phosphorylation enrichment of 0.508.
REDVFYTSKLW [AKR1C2_Y81_I79V] showed a phosphorylation enrichment of 0.759.
TVETKYDNISR [SETDB2_Y477] was tested, and the phosphorylation enrichment was 0.71.
For RKQQLYTAMEE [CCDC39_Y593], the phosphorylation enrichment was 0.707.
EELLRYAIVTP [POC5_Y37_H36R] showed a phosphorylation enrichment of 0.669.
With PVDNLYAEPAV [PRPS1_Y146] the phosphorylation enrichment was 5.2.
NQLNDYIFSFD [RARS1_Y516_R512Q] gave a phosphorylation enrichment of 0.525.
FQKNIYSEEPR [LMNA_Y211_L215P] gave a phosphorylation enrichment of 0.438.
KELALYDENWF [RPS19_Y48_P47L] was tested, and the phosphorylation enrichment was 8.19.
KRISCYEARFQ [PFKFB3_Y194_S197R_YF] gave a phosphorylation enrichment of 0.398.
FSAPNYCFRCG [PPP2CA_Y265_YF] gave a phosphorylation enrichment of 0.397.
ADVLDYIKALN [HPRT1_Y81_L78V] gave a phosphorylation enrichment of 0.459.
For EVTLTYATGTK [NFKB1_Y485], the phosphorylation enrichment was 0.526.
FLAVGYHKPHI [IDS_Y225] was tested, and the phosphorylation enrichment was 0.356.
With FADTAYNFRHG [PAH_Y166_I164T_YF] the phosphorylation enrichment was 0.363.
VMTVDYSKTVV [SETD2_Y770] was tested, and the phosphorylation enrichment was 0.379.
SVKVYYKKCWF [EPHA7_Y202_S207F] gave a phosphorylation enrichment of 0.553.
LIQRNYKLTAQ [ALPK2_Y1975_A1978T] showed a phosphorylation enrichment of 0.479.
DVFVSYDFGKS [SORL1_Y139_YF] was tested, and the phosphorylation enrichment was 0.452.
AFRRGYFDEEM [PLEC_Y2971_YF] was tested, and the phosphorylation enrichment was 0.514.
With IIRRLYLKWHP [SACS_Y4333] the phosphorylation enrichment was 0.508.
SEPDLYCDPRG [PKP1_Y160] gave a phosphorylation enrichment of 4.34.

What follows are sequences tested on c-Abl (mouse) in the same assay as above.
Work on VMVCAYLLHRG [PTEN_Y138_I135V] yielded a phosphorylation enrichment of 1.18.
In the case of QFFQGYFNNNF [ZNF236_Y644_S643G], the phosphorylation enrichment is reported as 1.23.
In the case of VIKDKYPQARY [APTX_Y209_K211Q], the phosphorylation enrichment is reported as 0.523.
VQDPAYLRDIN [OPRK1_Y369_D374N] showed a phosphorylation enrichment of 0.604.
EWLRGYLENGK [HLA-C_Y195_R194G] was tested, and the phosphorylation enrichment was 0.97.
KQMEQYMSFHK [HCN1_Y417_V414M] showed a phosphorylation enrichment of 0.416.
Sequence EWQQTYTYDSG [JUP_Y20] has a phosphorylation enrichment of 0.657.
For HNLDFYKKTTN [FGFR3_Y648_YF], the phosphorylation enrichment was 3.49.
Work on GVRLFYRVMES [RB1_Y454_YF] yielded a phosphorylation enrichment of 0.83.
Work on SVTCTYSPALN [TP53_Y126] yielded a phosphorylation enrichment of 0.976.
For AEPPDYSPVTQ [ADGRG2_Y285_H290Q], the phosphorylation enrichment was 0.99.
GKFRMYVAVWT [F13A1_Y161] showed a phosphorylation enrichment of 0.762.
For REDVFYTSKLW [AKR1C2_Y81_I79V], the phosphorylation enrichment was 1.25.
Sequence TVETKYDNISR [SETDB2_Y477] has a phosphorylation enrichment of 0.643.
For RKQQLYTAMEE [CCDC39_Y593], the phosphorylation enrichment was 0.677.
In the case of EELLRYAIVTP [POC5_Y37_H36R], the phosphorylation enrichment is reported as 0.62.
Work on PVDNLYAEPAV [PRPS1_Y146] yielded a phosphorylation enrichment of 8.54.
In the case of NQLNDYIFSFD [RARS1_Y516_R512Q], the phosphorylation enrichment is reported as 0.733.
Sequence FQKNIYSEEPR [LMNA_Y211_L215P] has a phosphorylation enrichment of 0.477.
In the case of KELALYDENWF [RPS19_Y48_P47L], the phosphorylation enrichment is reported as 1.06.
In the case of KRISCYEARFQ [PFKFB3_Y194_S197R_YF], the phosphorylation enrichment is reported as 0.728.
FSAPNYCFRCG [PPP2CA_Y265_YF] showed a phosphorylation enrichment of 0.416.
Work on ADVLDYIKALN [HPRT1_Y81_L78V] yielded a phosphorylation enrichment of 0.467.
EVTLTYATGTK [NFKB1_Y485] gave a phosphorylation enrichment of 0.774.
With FLAVGYHKPHI [IDS_Y225] the phosphorylation enrichment was 0.709.
FADTAYNFRHG [PAH_Y166_I164T_YF] was tested, and the phosphorylation enrichment was 0.544.
VMTVDYSKTVV [SETD2_Y770] showed a phosphorylation enrichment of 0.574.
In the case of SVKVYYKKCWF [EPHA7_Y202_S207F], the phosphorylation enrichment is reported as 0.856.
In the case of LIQRNYKLTAQ [ALPK2_Y1975_A1978T], the phosphorylation enrichment is reported as 1.2.
For DVFVSYDFGKS [SORL1_Y139_YF], the phosphorylation enrichment was 0.78.
For AFRRGYFDEEM [PLEC_Y2971_YF], the phosphorylation enrichment was 0.763.
IIRRLYLKWHP [SACS_Y4333] gave a phosphorylation enrichment of 0.721.
For SEPDLYCDPRG [PKP1_Y160], the phosphorylation enrichment was 1.31.
